Results published in patent US20090304754.

How the values were obtained:
[1] = target: Flavobacterium meningosepticum prolyl endopeptidase, unmodified (UniProt P27028)
[2] = target: Flavobacterium meningosepticum prolyl endopeptidase conjugated with 20,000 Da PEG (UniProt P27028)
[3] = target: T1, 26mer peptide derived from gamma-gliadin
T1 chain: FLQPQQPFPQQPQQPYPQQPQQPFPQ

chymotrypsin
kcat/KM of chymotrypsin-catalyzed proteolysis of FM PEP (loss of PEP activity, Michaelis-Menten fit) [1]: The chymotrypsin proteolysis exhibited a kcat/KM of 5.0 for the unmodified PEP

trypsin
kcat/KM of trypsin-catalyzed proteolysis of FM PEP (loss of PEP activity, Michaelis-Menten fit) [2]: a kcat/KM of 3.4 was obtained for the PEGylated PEP | kcat/KM of trypsin-catalyzed proteolysis of FM PEP (loss of PEP activity, Michaelis-Menten fit) [1]: a kcat/KM of 11.7 M^-1 sec-1 was obtained for unmodified PEP

B1: Flavobacterium meningosepticum prolyl endopeptidase, unmodified (protein)
chain: QNSNVLKYPETKKVSHTDTYFGTQVSDPYRWLEDDRAEDTKAWVQQEVKFTQDYLAQIPFRDQLKKQLMDIWNYEKISAPFKKGKYTYFSKNDGLQAQSVLYRKDAAGKTEVFLDPNKFSEKGTTSLASVSFNKKGTLVAYSISEGGSDWNKIIILDAETKKQLDETLLDVKFSGISWLGDEGFFYSSYDKPKEGSVLSGMTDKHKVYFHKLGTKQSQDELIIGGDKFPRRYIGAYVTDDQRYLVVSAANATNGNELYIKDLKNKTDFIPIITGFDSNVNVADTDGDTLYLFTDKDAPNKRLVKTTIQNPKAETWKDVIAETSEPLEINTGGGYFFATYMKDAIDQVKQYDKNGKLVRAIKLPGSGNASGFGGEKTEKDLYYSFTNYITPPTIFKYNVTTGNSEVYQKPKVKFNPENYVSEQVFYTSSDGTKIPMMISYKKGLKKDGKNPTILYSYGGFNISLQPAFSVVNAIWMENGGIYAVPNIRGGGEYGKKWHDAGTKMQKKNVFNDFIAAGEYLQKNGYTSKEYMALSGRSNGGLLVGATMTMRPDLAKVAFPGVGVLDMLRYNKFTAGAGWAYDYGTAEDSKEMFEYLKSYSPVHNVKAGTCYPSTMVITSDHDDRVVPAHSFKFGSELQAKQSCKNPILIRIETNAGHGAGRSTEQVVAENADLLSFALYEMGIKSLK
time course of cleavage of the 26mer peptide, HPLC [3]: PEGylated enzymes are able to cleave longer substrates at rates comparable to unmodified enzyme

B2: Flavobacterium meningosepticum prolyl endopeptidase conjugated with 5000 Da PEG (protein)
chain: QNSNVLKYPETKKVSHTDTYFGTQVSDPYRWLEDDRAEDTKAWVQQEVKFTQDYLAQIPFRDQLKKQLMDIWNYEKISAPFKKGKYTYFSKNDGLQAQSVLYRKDAAGKTEVFLDPNKFSEKGTTSLASVSFNKKGTLVAYSISEGGSDWNKIIILDAETKKQLDETLLDVKFSGISWLGDEGFFYSSYDKPKEGSVLSGMTDKHKVYFHKLGTKQSQDELIIGGDKFPRRYIGAYVTDDQRYLVVSAANATNGNELYIKDLKNKTDFIPIITGFDSNVNVADTDGDTLYLFTDKDAPNKRLVKTTIQNPKAETWKDVIAETSEPLEINTGGGYFFATYMKDAIDQVKQYDKNGKLVRAIKLPGSGNASGFGGEKTEKDLYYSFTNYITPPTIFKYNVTTGNSEVYQKPKVKFNPENYVSEQVFYTSSDGTKIPMMISYKKGLKKDGKNPTILYSYGGFNISLQPAFSVVNAIWMENGGIYAVPNIRGGGEYGKKWHDAGTKMQKKNVFNDFIAAGEYLQKNGYTSKEYMALSGRSNGGLLVGATMTMRPDLAKVAFPGVGVLDMLRYNKFTAGAGWAYDYGTAEDSKEMFEYLKSYSPVHNVKAGTCYPSTMVITSDHDDRVVPAHSFKFGSELQAKQSCKNPILIRIETNAGHGAGRSTEQVVAENADLLSFALYEMGIKSLK
time course of cleavage of the 26mer peptide, HPLC (disappearance of the intact 26mer peak) [3]: both the 5 kDa and 20 kDa PEGylated FM PEPs were 8-12% faster in cleaving the peptide than the unmodified FM PEP

B3: Flavobacterium meningosepticum prolyl endopeptidase conjugated with 20,000 Da PEG (protein)
chain: QNSNVLKYPETKKVSHTDTYFGTQVSDPYRWLEDDRAEDTKAWVQQEVKFTQDYLAQIPFRDQLKKQLMDIWNYEKISAPFKKGKYTYFSKNDGLQAQSVLYRKDAAGKTEVFLDPNKFSEKGTTSLASVSFNKKGTLVAYSISEGGSDWNKIIILDAETKKQLDETLLDVKFSGISWLGDEGFFYSSYDKPKEGSVLSGMTDKHKVYFHKLGTKQSQDELIIGGDKFPRRYIGAYVTDDQRYLVVSAANATNGNELYIKDLKNKTDFIPIITGFDSNVNVADTDGDTLYLFTDKDAPNKRLVKTTIQNPKAETWKDVIAETSEPLEINTGGGYFFATYMKDAIDQVKQYDKNGKLVRAIKLPGSGNASGFGGEKTEKDLYYSFTNYITPPTIFKYNVTTGNSEVYQKPKVKFNPENYVSEQVFYTSSDGTKIPMMISYKKGLKKDGKNPTILYSYGGFNISLQPAFSVVNAIWMENGGIYAVPNIRGGGEYGKKWHDAGTKMQKKNVFNDFIAAGEYLQKNGYTSKEYMALSGRSNGGLLVGATMTMRPDLAKVAFPGVGVLDMLRYNKFTAGAGWAYDYGTAEDSKEMFEYLKSYSPVHNVKAGTCYPSTMVITSDHDDRVVPAHSFKFGSELQAKQSCKNPILIRIETNAGHGAGRSTEQVVAENADLLSFALYEMGIKSLK
time course of cleavage of the 26mer peptide, HPLC (disappearance of the intact 26mer peak) [3]: both the 5 kDa and 20 kDa PEGylated FM PEPs were 8-12% faster in cleaving the peptide than the unmodified FM PEP
